Experimental data as given in patent publication US20240189443A1, “PD-L1 AND TLR7 DOUBLE-TARGETING NANOBODY COUPLING DRUG AND USE THEREOF IN ANTI-TUMOR” (SHANGHAI INSTITUTE OF MATERIA MEDICA, CHINESE ACADEMY OF …, priority 2021, published 2024).
Several values for one entry are separate records, joined by “and”; a condition that tells them apart may be missing. Equal values may be shown once. Values belong to the molecule of their own block, whether it stands above or below them.

Experiments:
[1] = test system: IFN-γ-induced high-expression PD-L1 CT26; experiment: IFN-γ-induced high-expression PD-L1 CT26 subcutaneous tumor-bearing model, conjugate vs combined administration; assay type: in vivo, BALB/c mouse; details: Day 14, Nb16 or Nb16-SZU-101 10 mg/kg, SZU-101 0.5 mg/kg, intraperitoneal, 4 doses
Experimental: In an IFN-γ-induced high-expression PD-L1 CT26 subcutaneous tumor-bearing BALB/c mouse model, mice were randomly divided into four groups, namely an mFc group, an Nb16 group, an Nb16/SZU-101 combined administration group and an NB16-SZU-101 nanobody conjugate drug group, wherein the administration dosage of the mFc or Nb 16 or Nb16-SZU-101 was 10 mg/kg, the administration mode was intraperitoneal administration, the administration dosage of the SZU-101 was 0.5 mg/kg, and the administration mode was intraperitoneal administration; the drug was administered on Day 2, Day 6, Day 10 and Day 13 for a total of 4 times. Tumor sizes were measured 2-3 times per week, and tumor growth curves were drawn; and anatomical weighing and photographing were performed on mice at Day 14.

[2] = test system: induced high-expression PD-L1 CT26 tumor cell; experiment: Combined anti-tumor effect of Nb16 and SZU-101, IFN-γ-induced CT26 subcutaneous tumor model; assay type: in vivo, BALB/c mouse; details: Nb16 10 mg/kg intraperitoneal, SZU-101 3 mg/kg peritumoral
Experimental: The mouse CT26 tumor cells were recovered and passaged, it was ensured that tumor cells at least have been subjected to 3 generations during tumor-bearing, and mouse IFN-γ with a final concentration of 100 ng/mL was used to induce tumor cells for 24 h before tumor-bearing, so that the cell surface thereof highly expresses PD-L1; the induced high-expression PD-L1 CT26 tumor cell was inoculated subcutaneously into a female BALB/c mouse, wherein the inoculation amount was 1×10^6 cells/one; and randomly grouping mice into four groups (9 per group), i.e., a same-type control group (mFc), a nano-antibody Nb16 group (Nb16), a TLR7 agonist SZU-101 group (SZU-101) and a combined treatment group (NB16/SZU-101), wherein the administration amount of the mFc and the Nb16 was 10 mg/kg, and intraperitoneal administration was performed; and the administration amount of the SZU-101 was 3 mg/kg, and the tumor was administered circumferentially. The administration cycle were Nb16 administered on D1, D5, D9, D12, and D14 and SZU-101 administered on D9-D14 (3A). The body weight of the mouse and the tumor major diameter (L) and the short diameter (W) in the administration cycle were observed and recorded until the anatomical endpoint, and the tumor volume V=(L×W×W)/2 was calculated, a tumor growth curve was drawed, and the tumor inhibition rate was calculated; and the experiment was terminated on the fifteenth day. After performing euthanasia, the animal was dissected, and the subcutaneous tumor was taken out.

PD-1/PD-L1 = PD-1/PD-L1 (Mus musculus, UniProt Q9EP73); experiment: ELISA PD-1/PD-L1 blocking activity assay of nanobody Nb16; assay type: binding; set-up: A Mouse PD-L1 (ECD)-pFUSE-hIgG1-Fc vector is constructed; made in house; host or cells: HEK293F (PD-L1-Fc)
Experimental: Coating the plate with mPD-L1-Fc fusion protein at 4° C. overnight, then the plate was sealed with BSA at 37° C. for 2 hours, Nb16 nanobodies of different concentrations and 10 μg/mL mouse PD-1-Fc-Biotin fusion protein were added in each hole., After reacting at room temperature for 1 hour, the plate was washed and antibody SA-HRP was added, and the plate reacted at room temperature for 1 hour. After washing, a color developing solution was added, and an absorption value was read at a wavelength of 450 nm.

human PD-L1 = human PD-L1 (Homo sapiens, UniProt Q9NZQ7); experiment: CDR affinity maturation of anti-human PD-L1 nanobodies, affinity compared with original antibody; assay type: binding; details: relative to original antibody h_Nb1 VHH or h_Nb2 VHH
Source text: Wherein, the original antibody corresponding to the sequence shown in SEQ ID NO.92-106 is h_Nb1 VHH (SEQ ID NO.21); and the original antibody corresponding to the sequence shown in SEQ ID NO.107 -117 is h_Nb2 VHH (SEQ ID NO.25).

Sequence of human PD-L1 (Q9NZQ7 19-290): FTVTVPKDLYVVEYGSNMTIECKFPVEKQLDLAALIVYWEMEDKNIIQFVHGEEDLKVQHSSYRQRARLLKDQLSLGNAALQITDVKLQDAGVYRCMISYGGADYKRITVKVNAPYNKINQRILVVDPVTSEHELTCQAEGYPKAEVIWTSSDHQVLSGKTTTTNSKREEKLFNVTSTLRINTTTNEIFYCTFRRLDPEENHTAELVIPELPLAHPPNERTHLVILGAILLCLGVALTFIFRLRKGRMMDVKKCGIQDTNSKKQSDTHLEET
Sequence of PD-1/PD-L1 (Q9EP73 19-239 limits assumed): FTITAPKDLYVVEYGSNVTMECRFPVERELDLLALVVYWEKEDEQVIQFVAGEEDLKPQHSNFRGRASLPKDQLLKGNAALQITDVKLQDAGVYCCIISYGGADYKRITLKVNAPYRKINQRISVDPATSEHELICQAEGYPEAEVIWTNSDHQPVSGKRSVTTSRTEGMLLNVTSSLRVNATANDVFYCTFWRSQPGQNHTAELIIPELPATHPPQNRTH

Blocking of PD-1/PD-L1 binding (PD-1/PD-L1): effectively blocked
B1: Nb16: anti-PD-L1 nanobody, VHH sequence SEQ ID NO: 1, expressed as Fc fusion (protein)
chain: QVQLQESGGGSVQAGGSLRLSCAASGYTDRNYWMGWFRQAPGKEREGVAALYTRTGSTYYADSVKGRFTISHDNAKNTLYLQMNSLKPEDTAVYYCAADSNAYGLAPLHHYWGQGTQVTVSS
modifications: left off: a dimerising Fc or GST
Tumor inhibitory rate [1]: 30%
Endpoint tumor Weight ([1]; individual mice): 0.263 g and 0.591 g and 0.342 g and 0.334 g and 0.494 g and 0.442 g
Anti-tumor effect [2]: significantly inhibit tumor growth
Tumor inhibitory rate ([2]; day 15): 35%
Endpoint tumor Weight ([2]; individual mice, day 15): 0.806 g and 0.505 g and 0.460 g and 0.450 g and 0.250 g and 0.381 g and 0.664 g and 0.361 g and 0.418 g

Increased relative affinity (human PD-L1): 8.4837
B2: h_Nb2_G101Y: affinity-matured h_Nb2 VHH, SEQ ID NO: 112 (protein)
VHH: DVQLQESGGGLVQPGGSLRLSCAASGFTFGDRWMYWLRQAPGKGLEWVSSINPAGRSTYYADSVKGRFTISRDNAKNTLYLQMNSLKSEDTAVYYCTKDPGYYQKGQGTQVTVSS
modifications: h_Nb2_G101Y
